These results are taken from article PMC7279403, “Zygotic Vsx1 Plays a Key Role in Defining V2a Interneuron Sub-Lineage by Directly Repressing tal1 Transcription in Zebrafish”.

Data set [1] addresses T1, Vsx1 homeodomain (Vsx1-Homeodomain-His) (zebrafish, UniProt O42250 132-224). Briefly: competition; 500-fold excess against biotin site 14 probe; only weak complex left; LightShift Chemiluminescent EMSA kit (Pierce), 6% native PAGE; binding buffer as in He et al. [23], salt, pH and temperature not given. As to conditions: protein: recombinant; tags: His in the Results; label: none. On the technique in general: In EMSA bound probe runs differently from free probe, usually more slowly.

Data set [2] addresses T1, Vsx1 homeodomain (Vsx1-Homeodomain-His). Briefly: competition; 500-fold or more excess against biotin site 12 probe; no competition; LightShift Chemiluminescent EMSA kit (Pierce), 6% native PAGE; binding buffer as in He et al. [23], salt, pH and temperature not given. The note with it: protein: recombinant; tags: His in the Results; label: none.
Data set [3] shares this target. Briefly: competition; 500-fold excess against biotin site 12 probe; only weak complex left; LightShift Chemiluminescent EMSA kit (Pierce), 6% native PAGE; binding buffer as in He et al. [23], salt, pH and temperature not given. The note with it: protein: recombinant; tags: His in the Results; label: none.
Data set [4] has the same target. The data set can be described thus: EMSA; LightShift Chemiluminescent EMSA kit (Pierce), 6% native PAGE; binding buffer as in He et al. [23], salt, pH and temperature not given. As to conditions: protein: recombinant; tags: His in the Results; label: biotin 5' end (labeled probe).
Data set [5] shares this target. Briefly: competition; 500-fold or more excess against biotin site 14 probe; no competition; LightShift Chemiluminescent EMSA kit (Pierce), 6% native PAGE; binding buffer as in He et al. [23], salt, pH and temperature not given. The note with it: protein: recombinant; tags: His in the Results; label: none.

T1 sequence (O42250 132-224): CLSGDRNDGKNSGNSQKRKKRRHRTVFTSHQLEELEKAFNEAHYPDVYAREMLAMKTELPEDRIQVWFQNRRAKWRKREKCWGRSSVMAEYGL

B1: tal1 site 14 unlabeled wild-type competitor (dsDNA)
DNA 1: ACGCAGATCATAATTAGGCGTTTGATC
DNA 2: GATCAAACGCCTAATTATGATCTGCGT
B1: the binding result in data set [1] is recorded as “binds”.

B2: tal1 site 12 mutant competitor (TAATTA to TCGATA) (dsDNA)
DNA 1: TGGCCGCATCGATCGATTCTGATTGAG
DNA 2: CTCAATCAGAATCGATCGATGCGGCCA
For B2, the binding result in data set [2] is listed as “no binding”.

B3: tal1 site 12 unlabeled wild-type competitor (dsDNA)
DNA 1: TGGCCGCATAATTAATTTCTGATTGAG
DNA 2: CTCAATCAGAAATTAATTATGCGGCCA
For the molecule B3, the binding result in data set [3] is “binds”.

B4: tal1 binding site 12 probe (dsDNA)
DNA 1: TGGCCGCATAATTAATTTCTGATTGAG
DNA 2: CTCAATCAGAAATTAATTATGCGGCCA
For B4, the binding result in data set [4] is reported as “binds”.

B5: tal1 site 14 mutant competitor (TAATTA to TCGATA) (dsDNA)
DNA 1: ACGCAGATCATCGATAGGCGTTTGATC
DNA 2: GATCAAACGCCTATCGATGATCTGCGT
In the case of B5, the binding result in data set [5] was “no binding”.

B6: tal1 binding site 14 probe (dsDNA)
DNA 1: ACGCAGATCATAATTAGGCGTTTGATC
DNA 2: GATCAAACGCCTAATTATGATCTGCGT
For B6, the binding result in data set [4] is given as “binds”.
